This is an account of results in PMC11248248, “Dual protection by Bcp1 and Rkm1 ensures incorporation of uL14 into pre-60S ribosomal subunits” (The Journal of Cell Biology, 2024).

Sequences and labels used below:
B2: Bcp1-His6 (natural protein, S. cerevisiae, UniProt Q06338 1-283, looked up)
chain: MVQAIKLNDLKNRKRKNVEEENGSDESEIDISSTDSENEEEQNGEEEIVNIDFDFFGGNPEVDFHALKNLLRQLFGPQESTRIQLSSLADLILGSPTTTIKTDGKESDPYCFLSFVDFKANHLSDYVKYLQKVDMRLSTFFKTMIDSGNKNCALVLSERLINMPPEVVPPLYKITLEDVATALGDDKHYDFYIIVTRKYEVNFDTDDDTDSGKRNKNKDERSKKRVKADEVDYFHEEDRFFEKYAKIHFESEAKKGVISSYMILDHEGLVKSIDELETEISTW
notes: Bcp1, S. cerevisiae; also called full-length Bcp1; recombinant Bcp1

Details in all cases: both partners purified
Experiment [1] deals with B2. The experiment can be described thus: SEC; HiLoad 16/600 Superdex 200; Bcp1, uL14 and Rkm1 mixed; ratio from band intensity in SDS-PAGE and molecular weight estimated from SEC.
A further experiment has as its target T1, Rkm1-His6 (S. cerevisiae, UniProt Q08961 1-583).
T1 construct: Rkm1, ribosomal lysine methyltransferase with SET domain, S. cerevisiae; also called recombinant Rkm1; source: E. coli BL21(DE3), purified (Ni-NTA, Superdex 200)
T1 sequence (looked up): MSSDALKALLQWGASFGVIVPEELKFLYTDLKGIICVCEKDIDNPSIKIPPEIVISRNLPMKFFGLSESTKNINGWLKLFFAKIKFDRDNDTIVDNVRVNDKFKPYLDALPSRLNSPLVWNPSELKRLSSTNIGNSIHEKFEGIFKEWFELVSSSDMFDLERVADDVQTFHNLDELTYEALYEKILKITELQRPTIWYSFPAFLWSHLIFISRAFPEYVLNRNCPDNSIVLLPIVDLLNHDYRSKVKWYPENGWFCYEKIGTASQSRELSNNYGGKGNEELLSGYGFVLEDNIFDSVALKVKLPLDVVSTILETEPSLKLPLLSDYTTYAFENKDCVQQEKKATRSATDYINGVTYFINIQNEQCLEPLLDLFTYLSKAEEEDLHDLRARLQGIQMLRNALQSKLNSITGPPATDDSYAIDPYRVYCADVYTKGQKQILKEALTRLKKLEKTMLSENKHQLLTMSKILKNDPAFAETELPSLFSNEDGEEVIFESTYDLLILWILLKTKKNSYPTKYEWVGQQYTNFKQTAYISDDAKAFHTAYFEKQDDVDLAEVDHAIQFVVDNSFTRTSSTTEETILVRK
Described as above.

The target of a further experiment is T2, GST-Kap123 (S. cerevisiae, UniProt P40069 1-1113).
T2 construct: importin Kap123, S. cerevisiae; also called karyopherin; importin; source: recombinant, purified on glutathione beads; not shown: GST, N-terminal, kept
T2 sequence (looked up): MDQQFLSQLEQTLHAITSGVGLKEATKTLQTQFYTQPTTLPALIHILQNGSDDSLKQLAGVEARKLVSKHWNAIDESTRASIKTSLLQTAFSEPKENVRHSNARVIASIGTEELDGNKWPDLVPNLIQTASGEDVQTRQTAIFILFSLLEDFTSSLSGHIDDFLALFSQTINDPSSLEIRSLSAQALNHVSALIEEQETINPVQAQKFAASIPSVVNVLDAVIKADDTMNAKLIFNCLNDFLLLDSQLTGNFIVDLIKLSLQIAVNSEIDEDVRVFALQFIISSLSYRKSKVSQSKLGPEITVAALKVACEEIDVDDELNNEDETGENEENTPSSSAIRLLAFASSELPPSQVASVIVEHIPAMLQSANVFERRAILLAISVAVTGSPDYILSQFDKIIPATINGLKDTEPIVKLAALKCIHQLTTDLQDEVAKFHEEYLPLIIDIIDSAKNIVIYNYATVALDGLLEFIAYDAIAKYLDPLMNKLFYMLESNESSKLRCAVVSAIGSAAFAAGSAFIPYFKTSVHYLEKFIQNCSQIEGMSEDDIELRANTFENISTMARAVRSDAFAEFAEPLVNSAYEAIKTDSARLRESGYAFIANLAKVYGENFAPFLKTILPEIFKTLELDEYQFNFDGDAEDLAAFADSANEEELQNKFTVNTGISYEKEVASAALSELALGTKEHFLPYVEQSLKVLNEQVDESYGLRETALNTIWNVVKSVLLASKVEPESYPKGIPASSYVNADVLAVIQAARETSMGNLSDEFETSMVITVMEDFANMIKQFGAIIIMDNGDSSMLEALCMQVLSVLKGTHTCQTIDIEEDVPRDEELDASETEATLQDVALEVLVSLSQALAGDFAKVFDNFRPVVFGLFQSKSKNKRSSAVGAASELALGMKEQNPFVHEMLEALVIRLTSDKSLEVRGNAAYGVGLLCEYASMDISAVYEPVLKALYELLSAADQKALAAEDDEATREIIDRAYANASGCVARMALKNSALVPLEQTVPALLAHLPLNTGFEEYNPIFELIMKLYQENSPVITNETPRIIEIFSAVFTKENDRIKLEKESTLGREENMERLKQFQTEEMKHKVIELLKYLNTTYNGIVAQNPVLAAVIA
As to the kind of experiment: pull-down; GST-Kap121 or GST-Kap123 on glutathione beads, incubated with recombinant proteins at 4°C for 1 h, three washes; Coomassie staining and western blotting.

The target of experiment [2] is T3, GST-Kap121 (S. cerevisiae, UniProt P32337 1-1089).
T3 construct: importin Kap121 (Pse1), S. cerevisiae; also called karyopherin; importin; source: recombinant, purified on glutathione beads; not shown: GST, N-terminal, kept
T3 sequence (looked up): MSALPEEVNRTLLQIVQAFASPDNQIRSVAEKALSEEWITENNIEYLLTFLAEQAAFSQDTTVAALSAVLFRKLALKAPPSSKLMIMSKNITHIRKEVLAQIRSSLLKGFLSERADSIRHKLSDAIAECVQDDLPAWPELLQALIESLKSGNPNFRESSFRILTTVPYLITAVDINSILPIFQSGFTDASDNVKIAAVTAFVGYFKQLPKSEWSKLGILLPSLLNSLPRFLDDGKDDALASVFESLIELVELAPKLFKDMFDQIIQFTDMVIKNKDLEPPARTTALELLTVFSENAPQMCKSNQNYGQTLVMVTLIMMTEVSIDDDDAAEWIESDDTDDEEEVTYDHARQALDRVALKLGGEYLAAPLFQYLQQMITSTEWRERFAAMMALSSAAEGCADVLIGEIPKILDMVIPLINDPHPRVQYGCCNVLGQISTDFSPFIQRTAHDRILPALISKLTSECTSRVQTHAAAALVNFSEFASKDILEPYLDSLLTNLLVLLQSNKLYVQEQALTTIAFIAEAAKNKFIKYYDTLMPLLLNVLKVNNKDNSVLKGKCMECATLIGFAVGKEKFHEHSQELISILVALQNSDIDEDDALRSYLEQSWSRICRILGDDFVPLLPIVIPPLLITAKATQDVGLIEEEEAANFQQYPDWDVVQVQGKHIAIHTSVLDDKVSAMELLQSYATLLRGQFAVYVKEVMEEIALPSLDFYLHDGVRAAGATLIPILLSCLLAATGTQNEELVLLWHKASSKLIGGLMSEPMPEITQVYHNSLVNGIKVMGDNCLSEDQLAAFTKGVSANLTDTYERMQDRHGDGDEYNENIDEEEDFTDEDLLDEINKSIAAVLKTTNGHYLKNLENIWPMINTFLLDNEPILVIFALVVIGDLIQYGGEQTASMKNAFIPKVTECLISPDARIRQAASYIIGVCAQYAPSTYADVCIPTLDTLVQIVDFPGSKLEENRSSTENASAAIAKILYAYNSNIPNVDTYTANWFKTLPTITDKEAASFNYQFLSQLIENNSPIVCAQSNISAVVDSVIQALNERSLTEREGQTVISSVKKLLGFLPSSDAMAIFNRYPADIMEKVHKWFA
As to the kind of experiment: pull-down; release test: GST-Kap in complex with cargo immobilised on glutathione beads, purified Bcp1 or bcp1ΔN added for another hour at 4°C; what is left on the beads or in the supernatant by western blotting.

For experiment [3], the target named is T3, GST-Kap121. The experiment can be described thus: pull-down; GST-Kap121 or GST-Kap123 on glutathione beads, incubated with recombinant proteins at 4°C for 1 h, three washes; Coomassie staining and western blotting.
Another experiment deals with T4, GST-Rkm1/uL14 complex (S. cerevisiae, UniProt Q08961 1-583; P0CX41 1-137).
T4 construct: Rkm1, S. cerevisiae; as the chain of m12; uL14 (Rpl23), S. cerevisiae; as the chain of m2; also called Rkm1/uL14 complex on glutathione beads; source: recombinant, purified with glutathione beads
As to the kind of experiment: pull-down; purified Bcp1 or bcp1∆N20 added to the GST-Rkm1/uL14 complex immobilised on glutathione beads, with or without 0.5 mM SAM, 30°C, 80 min; beads and supernatants analysed.

Experiment [4] has as its target B2. The experiment can be described thus: pull-down; Bcp1-His6 in the supernatants of the methylation reactions (Fig. 6 A, lanes 7 and 8) purified on Ni-NTA beads; bound uL14 and its methylation by western blotting.

T4 sequence (P0CX41 whole entry, one chain of several): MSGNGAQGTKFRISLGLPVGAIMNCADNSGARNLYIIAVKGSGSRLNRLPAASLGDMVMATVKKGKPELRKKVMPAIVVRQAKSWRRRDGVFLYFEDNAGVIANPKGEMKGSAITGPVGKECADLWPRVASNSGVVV

B1: uL14 (recombinant) (natural protein)
chain: not shown
notes: ribosomal protein uL14 (Rpl23), S. cerevisiae, encoded by RPL23A and RPL23B; No tag is named for recombinant uL14; for the Bcp1/uL14 complex its bacterial pellet was lysed together with that of Bcp1-His6; also called Rpl23; source: E. coli BL21(DE3), purified
In the case of B1, the “stoichiometry N” value with Bcp1-His6 [1] and with Rkm1-His6 was ~1 throughout. Moreover, the binding result in the experiment with GST-Kap123 and in the experiment with GST-Kap121 [2] was “binds” throughout.
Take B2: the binding result with GST-Kap121 [3] and with GST-Rkm1/uL14 complex was “binds” in each case.

B3: Rkm1/uL14 complex (complex)
chain 1: MSSDALKALLQWGASFGVIVPEELKFLYTDLKGIICVCEKDIDNPSIKIPPEIVISRNLPMKFFGLSESTKNINGWLKLFFAKIKFDRDNDTIVDNVRVNDKFKPYLDALPSRLNSPLVWNPSELKRLSSTNIGNSIHEKFEGIFKEWFELVSSSDMFDLERVADDVQTFHNLDELTYEALYEKILKITELQRPTIWYSFPAFLWSHLIFISRAFPEYVLNRNCPDNSIVLLPIVDLLNHDYRSKVKWYPENGWFCYEKIGTASQSRELSNNYGGKGNEELLSGYGFVLEDNIFDSVALKVKLPLDVVSTILETEPSLKLPLLSDYTTYAFENKDCVQQEKKATRSATDYINGVTYFINIQNEQCLEPLLDLFTYLSKAEEEDLHDLRARLQGIQMLRNALQSKLNSITGPPATDDSYAIDPYRVYCADVYTKGQKQILKEALTRLKKLEKTMLSENKHQLLTMSKILKNDPAFAETELPSLFSNEDGEEVIFESTYDLLILWILLKTKKNSYPTKYEWVGQQYTNFKQTAYISDDAKAFHTAYFEKQDDVDLAEVDHAIQFVVDNSFTRTSSTTEETILVRK
chain 2: not shown
notes: Rkm1, S. cerevisiae; uL14 (Rpl23), S. cerevisiae; as the chain of m2; also called uL14/Rkm1 complex; source: E. coli, recombinant, purified
Consider B3, for which the binding result with GST-Kap121 [3] and with GST-Kap123 was “binds” in each case.

B4: methylated uL14 (natural protein)
chain: not shown
modifications: methylated at K106 and K110
notes: uL14 (Rpl23), S. cerevisiae; Methylation stoichiometry of K106 and K110 ~98.6% by AspN digestion; also called uL14 methylated in vitro by Rkm1 with SAM; source: recombinant uL14 methylated on GST-Rkm1 beads with 0.5 mM SAM, 30°C, 80 min
Take B4: in the experiment with Bcp1-His6 [4], the binding result is recorded as “binds”.

B5: bcp1ΔN20 (domain or fragment, S. cerevisiae, UniProt Q06338 21-283, looked up)
chain: ENGSDESEIDISSTDSENEEEQNGEEEIVNIDFDFFGGNPEVDFHALKNLLRQLFGPQESTRIQLSSLADLILGSPTTTIKTDGKESDPYCFLSFVDFKANHLSDYVKYLQKVDMRLSTFFKTMIDSGNKNCALVLSERLINMPPEVVPPLYKITLEDVATALGDDKHYDFYIIVTRKYEVNFDTDDDTDSGKRNKNKDERSKKRVKADEVDYFHEEDRFFEKYAKIHFESEAKKGVISSYMILDHEGLVKSIDELETEISTW
notes: Bcp1, S. cerevisiae, truncated by 20 amino acids from the N terminus; also called bcp1(∆N20); Bcp1(∆N20); source: E. coli, purified
Regarding B5, the binding result with GST-Rkm1/uL14 complex is “binds”.

B6: bcp1ΔN10 (domain or fragment, S. cerevisiae, UniProt Q06338 11-283, looked up)
chain: KNRKRKNVEEENGSDESEIDISSTDSENEEEQNGEEEIVNIDFDFFGGNPEVDFHALKNLLRQLFGPQESTRIQLSSLADLILGSPTTTIKTDGKESDPYCFLSFVDFKANHLSDYVKYLQKVDMRLSTFFKTMIDSGNKNCALVLSERLINMPPEVVPPLYKITLEDVATALGDDKHYDFYIIVTRKYEVNFDTDDDTDSGKRNKNKDERSKKRVKADEVDYFHEEDRFFEKYAKIHFESEAKKGVISSYMILDHEGLVKSIDELETEISTW
notes: Bcp1, S. cerevisiae, truncated by 10 amino acids from the N terminus; also called bcp1(∆N10); bcp1∆N10; source: E. coli, purified
Consider B6, for which, in the experiment with GST-Kap121 [3], the binding result was “binds”.
